This experiment addresses DyLight488-METTL14 (UniProt Q9HCE5). The experiment can be described thus: MST.

From paper PMC6438714 come the findings set out here.

UniProt Q9HCE5, sequence (Q9HCE5 whole entry): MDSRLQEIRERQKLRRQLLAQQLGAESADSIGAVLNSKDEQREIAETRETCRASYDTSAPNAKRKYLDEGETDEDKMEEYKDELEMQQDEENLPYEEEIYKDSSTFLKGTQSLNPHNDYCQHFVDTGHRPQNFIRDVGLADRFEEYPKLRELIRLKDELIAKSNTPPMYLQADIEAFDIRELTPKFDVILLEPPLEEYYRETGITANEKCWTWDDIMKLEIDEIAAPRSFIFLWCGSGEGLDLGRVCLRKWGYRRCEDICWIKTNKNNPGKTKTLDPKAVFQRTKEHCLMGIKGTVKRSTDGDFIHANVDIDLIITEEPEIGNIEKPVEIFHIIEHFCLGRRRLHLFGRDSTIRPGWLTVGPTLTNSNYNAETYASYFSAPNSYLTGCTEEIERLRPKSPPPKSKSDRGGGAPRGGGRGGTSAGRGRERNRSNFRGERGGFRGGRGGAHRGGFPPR

Turning to “full length H3K36me3 (from UniProt P68431 1-136) (natural protein)”, the Kd (usually the concentration at which binding is half-saturated) was found to be 1860 nM.
